From patent publication US20220119534A1 (DRAGONFLY THERAPEUTICS, published 2022) come the findings set out here.

The target of assay [1] is T1, Human CLEC12A-His (recombinant, K244 WT) (human, UniProt Q5QGZ9 65-265).
T1 construct: Made in house (Dragonfly Tx); also called hCLEC12A; hCLEC12A-His; not shown: His tag
T1 sequence: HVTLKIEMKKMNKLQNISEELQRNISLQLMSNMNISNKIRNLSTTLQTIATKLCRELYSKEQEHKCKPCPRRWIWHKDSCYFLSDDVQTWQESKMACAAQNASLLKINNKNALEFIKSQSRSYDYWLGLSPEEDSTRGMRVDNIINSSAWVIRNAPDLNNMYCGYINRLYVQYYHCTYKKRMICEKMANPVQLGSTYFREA
Kind of assay: SPR, two-state fit (kd1); control sample. (In general: SPR reads the build-up and loss of mass on a sensor chip optically.)

In assay [2] the target is T1, Human CLEC12A-His (recombinant, K244 WT). Kind of assay: SPR, two-state fit (kd1); control sample. This is another data set of the same source.
In assay [3] the target is T2, Human CLEC12A expressed on cells (Ba/F3-hCLEC12A, PL21, HL60) (human, UniProt Q5QGZ9 1-265).
T2 sequence: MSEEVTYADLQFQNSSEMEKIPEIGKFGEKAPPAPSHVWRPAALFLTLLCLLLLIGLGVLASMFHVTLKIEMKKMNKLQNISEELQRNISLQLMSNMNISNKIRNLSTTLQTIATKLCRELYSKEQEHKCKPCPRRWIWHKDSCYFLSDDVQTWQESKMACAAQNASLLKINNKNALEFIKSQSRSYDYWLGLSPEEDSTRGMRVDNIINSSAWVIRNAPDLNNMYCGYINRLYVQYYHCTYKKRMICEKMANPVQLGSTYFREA
Kind of assay: cell-based or functional assay.

A further assay has as its target T3, Human CD64 (FcγRI) (human, UniProt P12314 16-288, biotinylated).
T3 construct: Bought recombinant receptor; also called hFcγRI; Human FcγRI
Kind of assay: SPR 25C, biotinylated hCD64 captured on CAP chip.

A further assay has as its target T4, Human CD16b (FcγRIIIb) (human, UniProt O75015 17-200, limits assumed, biotinylated).
T4 construct: Bought recombinant receptor; also called hFcγRIIIb; CD16b (FcγR3b)
The assay can be described thus: SPR 25C, average.

In assay [4] the target is T5, Human CD16a V158 (FcγRIIIa V158) (human, UniProt P08637 17-208, biotinylated).
T5 construct: Bought recombinant receptor; also called hCD16aV; hFcγRIIIa V158
The assay can be described thus: SPR; control sample.

Assay [5] concerns the target T6, mFc-hNKG2D (recombinant mFc-tagged human NKG2D dimer) (human, UniProt P26718 73-216).
T6 construct: extracellular domain; Made in house; not shown: mouse Fc tag
T6 sequence (looked up): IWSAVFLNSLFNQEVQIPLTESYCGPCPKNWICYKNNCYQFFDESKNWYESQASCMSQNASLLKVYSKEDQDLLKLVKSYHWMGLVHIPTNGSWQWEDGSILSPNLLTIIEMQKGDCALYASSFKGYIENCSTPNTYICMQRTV
Kind of assay: SPR; control sample.

For assay [6], the target named is T1, Human CLEC12A-His (recombinant, K244 WT). The assay can be described thus: SPR 37C, AB0089 captured on anti-hFc, two-state fit.
Assay [7] shares this target. The assay can be described thus: SPR, two-state fit; after forced oxidation.

“And” between values parts separate entries of the source, which are not always exact repeats. Equal entries are not always repeated. Where two headings read alike, the source gives them in different places.

T5 sequence (P08637 17-208 F176V limits assumed): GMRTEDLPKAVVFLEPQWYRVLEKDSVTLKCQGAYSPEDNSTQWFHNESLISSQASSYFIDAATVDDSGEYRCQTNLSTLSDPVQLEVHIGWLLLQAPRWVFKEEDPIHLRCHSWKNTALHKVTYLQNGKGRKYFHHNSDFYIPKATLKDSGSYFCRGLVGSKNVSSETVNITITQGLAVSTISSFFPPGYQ
T3 sequence (P12314 16-288 limits assumed): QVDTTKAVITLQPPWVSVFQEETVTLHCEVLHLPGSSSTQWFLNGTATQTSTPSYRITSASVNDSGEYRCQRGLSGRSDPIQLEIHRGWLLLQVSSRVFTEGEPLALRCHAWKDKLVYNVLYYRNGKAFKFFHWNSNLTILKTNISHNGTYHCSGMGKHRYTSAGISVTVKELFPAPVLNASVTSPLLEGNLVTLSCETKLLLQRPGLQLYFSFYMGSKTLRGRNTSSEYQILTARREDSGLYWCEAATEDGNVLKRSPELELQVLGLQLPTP
T4 sequence (O75015 17-200 limits assumed): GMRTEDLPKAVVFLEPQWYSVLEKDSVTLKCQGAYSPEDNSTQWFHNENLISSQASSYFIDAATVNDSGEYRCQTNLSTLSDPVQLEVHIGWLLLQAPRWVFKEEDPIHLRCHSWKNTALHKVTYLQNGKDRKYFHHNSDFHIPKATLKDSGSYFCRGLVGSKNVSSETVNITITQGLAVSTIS

B1: AB0089 TriNKET (bispecific antibody, human IgG1, kappa)
chain: QLQLQESGPGLVKPSETLSLTCTVSGFSLTNYGLHWIRQPPGKCLEWIGVIWVGGATDYNPSLKSRVTISVDTSKNQFSLKLSSVQAADTAVYYCAKGDYGDTLDYWGQGTLVTVSSGGGGSGGGGSGGGGSGGGGSDIQMTQSPSSLSASVGDRVTITCHASQNINFWLSWYQQKPGKAPKLLIYEASNLHTGVPSRFSGSGSGTDFTLTISSLQPEDFATYYCQQSHSYPLTFGCGTKLEIKGSDKTHTCPPCPAPELLGGPSVFLFPPKPKDTLMISRTPEVTCVVVDVSHEDPEVKFNWYVDGVEVHNAKTKPREEQYNSTYRVVSVLTVLHQDWLNGKEYKCKVSNKALPAPIEKTISKAKGQPREPRVYTLPPCRDELTKNQVSLTCLVKGFYPSDIAVEWESNGQPENNYKTTPPVLVSDGSFTLYSKLTVDKSRWQQGNVFSCSVMHEALHNHYTQKSLSLSPG
heavy: EVQLVESGGGLVKPGGSLRLSCAASGFTFSSYSMNWVRQAPGKGLEWVSSISSSSSYIYYADSVKGRFTISRDNAKNSLYLQMNSLRAEDTAVYYCARGAPIGAAAGWFDPWGQGTLVTVSSASTKGPSVFPLAPSSKSTSGGTAALGCLVKDYFPEPVTVSWNSGALTSGVHTFPAVLQSSGLYSLSSVVTVPSSSLGTQTYICNVNHKPSNTKVDKKVEPKSCDKTHTCPPCPAPELLGGPSVFLFPPKPKDTLMISRTPEVTCVVVDVSHEDPEVKFNWYVDGVEVHNAKTKPREEQYNSTYRVVSVLTVLHQDWLNGKEYKCKVSNKALPAPIEKTISKAKGQPREPQVCTLPPSRDELTENQVSLTCLVKGFYPSDIAVEWESNGQPENNYKTTPPVLDSDGSFFLYSWLTVDKSRWQQGNVFSCSVMHEALHNHYTQKSLSLSPG
light: DIQMTQSPSSVSASVGDRVTITCRASQGISSWLAWYQQKPGKAPKLLIYAASSLQSGVPSRFSGSGSGTDFTLTISSLQPEDFATYYCQQGVSFPRTFGGGTKVEIKRTVAAPSVFIFPPSDEQLKSGTASVVCLLNNFYPREAKVQWKVDNALQSGNSQESVTEQDSKDSTYSLSSTLTLSKADYEKHKVYACEVTHQGLSSPVTKSFNRGEC
notes: F3' format heterodimer of three chains; human IgG1 Fc with EW-RVT and Y349C/S354C mutations; also called AB0089 Lot AB0089-002; CLEC12A TriNKET AB0089
The koff is the rate constant with which the complex falls apart. Usually Kd stands for a measure of binding affinity in units of concentration. What is called kon is the rate constant with which the complex forms. B1: the koff in [1] was 0.0476 s⁻¹; in [2], 0.0435 s⁻¹; with Human CD64 (FcγRI), 0.00018 s⁻¹ and 0.00022 s⁻¹ and 0.00019 s⁻¹ and 0.00024 s⁻¹; in assay [4], 0.0278 s⁻¹; in [5] it was 0.135 s⁻¹. Also, the “EC50, KHYG-1-CD16aV cytotoxicity assay, HL-60 cells; after low pH hold” value in assay [3] was 0.11 nM. Further, the “EC50, KHYG-1-CD16aV cytotoxicity assay, HL-60 cells; control sample” value in assay [3] was 0.11 nM. Moreover, the Kd is 6.4 nM and 4.7 nM and 4.1 nM and 5.2 nM with Human CD64 (FcγRI); 8900 nM with Human CD16b (FcγRIIIb); 322 nM in assay [4]; 797 nM in assay [5]; 0.69 nM and 0.75 nM and 0.78 nM in assay [6]; 0.9 nM in assay [7]. In addition, the kon in the assay with Human CD64 (FcγRI) is 44000 M⁻¹ s⁻¹ and 46000 M⁻¹ s⁻¹; in assay [4], 86400 M⁻¹ s⁻¹; in assay [5] it was 169000 M⁻¹ s⁻¹.
